Results on 3 substances are retold here after patent US20150064134A1.

Experiment in all cases: cell-based or functional assay
The target in assay [1] is T1, ALK4(h) (human) (UniProt P36896).
T1 sequence (looked up): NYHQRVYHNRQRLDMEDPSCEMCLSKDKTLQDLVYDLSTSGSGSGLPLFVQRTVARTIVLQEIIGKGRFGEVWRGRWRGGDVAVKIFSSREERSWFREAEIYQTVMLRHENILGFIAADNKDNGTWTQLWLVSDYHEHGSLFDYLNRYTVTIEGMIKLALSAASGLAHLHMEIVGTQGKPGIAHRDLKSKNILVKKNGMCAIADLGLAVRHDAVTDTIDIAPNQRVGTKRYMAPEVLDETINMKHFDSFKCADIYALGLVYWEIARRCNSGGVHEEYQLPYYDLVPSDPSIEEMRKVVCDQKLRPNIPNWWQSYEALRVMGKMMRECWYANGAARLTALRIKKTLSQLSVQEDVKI

The target in assay [2] is Abl(Q252H)(h) (human) (UniProt P00519).
Assay [3] addresses Abl(Y253F)(h) (human) (UniProt P00519).
Assay [4] deals with T2, CHK1(h) (human) (UniProt O14757).
T2 sequence (looked up): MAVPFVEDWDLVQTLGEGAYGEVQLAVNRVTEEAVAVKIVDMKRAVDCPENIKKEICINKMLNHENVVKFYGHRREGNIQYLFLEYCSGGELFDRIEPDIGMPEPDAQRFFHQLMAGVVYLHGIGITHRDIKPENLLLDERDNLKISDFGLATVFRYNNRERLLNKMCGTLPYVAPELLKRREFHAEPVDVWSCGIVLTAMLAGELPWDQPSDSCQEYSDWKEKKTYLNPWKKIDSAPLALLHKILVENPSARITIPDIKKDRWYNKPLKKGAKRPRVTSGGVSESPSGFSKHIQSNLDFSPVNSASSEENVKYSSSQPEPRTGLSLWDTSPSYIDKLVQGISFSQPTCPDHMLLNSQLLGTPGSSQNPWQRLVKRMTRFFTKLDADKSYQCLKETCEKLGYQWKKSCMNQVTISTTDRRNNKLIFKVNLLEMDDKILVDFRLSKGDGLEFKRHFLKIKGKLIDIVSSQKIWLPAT

The target in assay [5] is T3, EphA8(h) (human) (UniProt P29322).
T3 sequence (looked up): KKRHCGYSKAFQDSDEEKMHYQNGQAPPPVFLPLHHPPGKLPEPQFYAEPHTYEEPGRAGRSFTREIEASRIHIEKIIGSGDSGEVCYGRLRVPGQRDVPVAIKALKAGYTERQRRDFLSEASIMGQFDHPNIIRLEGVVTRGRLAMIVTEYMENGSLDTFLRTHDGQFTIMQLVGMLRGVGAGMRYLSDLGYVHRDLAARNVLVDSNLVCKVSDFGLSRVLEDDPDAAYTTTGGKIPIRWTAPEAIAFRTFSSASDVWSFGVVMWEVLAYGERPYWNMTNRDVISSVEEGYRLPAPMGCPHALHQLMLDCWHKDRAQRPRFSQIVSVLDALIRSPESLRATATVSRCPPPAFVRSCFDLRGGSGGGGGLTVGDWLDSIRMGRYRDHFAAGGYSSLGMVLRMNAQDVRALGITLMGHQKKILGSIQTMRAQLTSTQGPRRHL

Assay [6] has as its target IGF-1R(h), activated (human) (UniProt P08069).
Assay [7] addresses MINK(h) (human) (UniProt Q8N4C8).
In assay [8] the target is MKK6(h) (human) (UniProt P52564).
Assay [9] addresses T4, Mer(h) (human) (UniProt Q12866).
T4 sequence (looked up): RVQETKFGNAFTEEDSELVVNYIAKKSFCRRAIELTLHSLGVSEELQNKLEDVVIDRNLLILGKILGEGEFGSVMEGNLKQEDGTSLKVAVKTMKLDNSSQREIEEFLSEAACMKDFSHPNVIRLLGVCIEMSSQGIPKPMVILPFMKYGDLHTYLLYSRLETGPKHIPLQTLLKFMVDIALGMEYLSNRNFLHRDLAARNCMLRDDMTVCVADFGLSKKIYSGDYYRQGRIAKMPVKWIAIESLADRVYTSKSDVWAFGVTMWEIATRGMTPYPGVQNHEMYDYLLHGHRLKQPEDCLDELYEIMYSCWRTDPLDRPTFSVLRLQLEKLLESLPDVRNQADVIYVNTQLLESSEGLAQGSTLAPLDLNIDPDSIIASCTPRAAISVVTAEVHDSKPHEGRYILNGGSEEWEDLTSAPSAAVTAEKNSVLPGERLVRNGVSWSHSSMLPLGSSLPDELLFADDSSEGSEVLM

The target of assay [10] is T5, PKCµ(h) (human) (UniProt Q15139).
T5 sequence (looked up): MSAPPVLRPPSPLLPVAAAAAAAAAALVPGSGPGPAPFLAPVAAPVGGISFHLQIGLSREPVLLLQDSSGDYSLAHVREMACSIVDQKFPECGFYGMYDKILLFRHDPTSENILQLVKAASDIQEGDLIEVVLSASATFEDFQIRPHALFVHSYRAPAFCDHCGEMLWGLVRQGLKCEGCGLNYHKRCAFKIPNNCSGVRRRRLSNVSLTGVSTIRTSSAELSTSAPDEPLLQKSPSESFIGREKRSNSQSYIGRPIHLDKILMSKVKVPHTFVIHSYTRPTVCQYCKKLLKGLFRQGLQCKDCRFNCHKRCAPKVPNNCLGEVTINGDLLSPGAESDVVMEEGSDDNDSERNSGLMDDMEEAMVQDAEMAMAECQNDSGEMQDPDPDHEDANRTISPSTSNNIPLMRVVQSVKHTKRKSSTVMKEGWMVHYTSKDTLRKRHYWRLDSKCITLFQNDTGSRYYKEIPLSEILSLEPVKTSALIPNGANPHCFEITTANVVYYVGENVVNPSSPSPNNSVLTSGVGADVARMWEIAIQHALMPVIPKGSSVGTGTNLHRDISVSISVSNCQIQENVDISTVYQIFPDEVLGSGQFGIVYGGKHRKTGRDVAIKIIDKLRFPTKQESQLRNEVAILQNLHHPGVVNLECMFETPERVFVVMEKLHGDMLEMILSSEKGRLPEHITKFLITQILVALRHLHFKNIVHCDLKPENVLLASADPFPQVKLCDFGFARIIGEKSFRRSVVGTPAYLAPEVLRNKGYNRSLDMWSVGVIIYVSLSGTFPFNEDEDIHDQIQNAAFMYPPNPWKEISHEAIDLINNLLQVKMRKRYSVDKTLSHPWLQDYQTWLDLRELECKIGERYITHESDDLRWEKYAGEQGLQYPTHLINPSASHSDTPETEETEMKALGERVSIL

For assay [11], the target named is mTOR/FKBP12(h) (human) (UniProt P42345).
Sequence of mTOR/FKBP12(h) (human) (P42345 1362-2549 limits assumed, chain 1 of 2): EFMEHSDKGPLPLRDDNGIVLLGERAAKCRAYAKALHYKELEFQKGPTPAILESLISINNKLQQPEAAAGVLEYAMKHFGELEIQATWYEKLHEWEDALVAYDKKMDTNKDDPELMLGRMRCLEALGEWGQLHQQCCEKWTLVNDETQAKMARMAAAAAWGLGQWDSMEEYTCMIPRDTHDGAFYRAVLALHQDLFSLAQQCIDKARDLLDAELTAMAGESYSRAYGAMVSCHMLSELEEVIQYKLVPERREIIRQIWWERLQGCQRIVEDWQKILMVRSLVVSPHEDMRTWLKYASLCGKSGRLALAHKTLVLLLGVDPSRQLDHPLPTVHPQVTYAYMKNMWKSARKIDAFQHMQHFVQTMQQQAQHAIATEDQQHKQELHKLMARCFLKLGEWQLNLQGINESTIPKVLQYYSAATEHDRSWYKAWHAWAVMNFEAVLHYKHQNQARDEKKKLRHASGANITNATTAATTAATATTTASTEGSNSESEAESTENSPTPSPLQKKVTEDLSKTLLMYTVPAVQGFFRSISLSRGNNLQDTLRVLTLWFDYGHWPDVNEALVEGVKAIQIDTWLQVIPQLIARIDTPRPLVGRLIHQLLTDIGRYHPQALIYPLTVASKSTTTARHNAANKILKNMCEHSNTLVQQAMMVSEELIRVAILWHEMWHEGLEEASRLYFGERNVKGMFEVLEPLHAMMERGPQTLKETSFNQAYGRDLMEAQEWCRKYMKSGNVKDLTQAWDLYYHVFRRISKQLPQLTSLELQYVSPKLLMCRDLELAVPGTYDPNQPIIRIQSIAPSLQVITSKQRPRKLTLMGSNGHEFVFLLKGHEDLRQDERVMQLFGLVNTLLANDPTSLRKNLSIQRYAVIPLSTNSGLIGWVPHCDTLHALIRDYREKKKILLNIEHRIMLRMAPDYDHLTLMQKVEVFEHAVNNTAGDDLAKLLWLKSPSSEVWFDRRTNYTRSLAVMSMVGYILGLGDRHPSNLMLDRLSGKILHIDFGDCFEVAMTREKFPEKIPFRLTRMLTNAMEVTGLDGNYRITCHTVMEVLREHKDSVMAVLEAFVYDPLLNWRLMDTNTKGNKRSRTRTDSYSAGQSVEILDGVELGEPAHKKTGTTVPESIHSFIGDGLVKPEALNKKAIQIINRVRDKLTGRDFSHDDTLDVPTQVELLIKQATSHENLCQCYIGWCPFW
Sequence of mTOR/FKBP12(h) (human) (P62942 whole entry, chain 2 of 2, further chain): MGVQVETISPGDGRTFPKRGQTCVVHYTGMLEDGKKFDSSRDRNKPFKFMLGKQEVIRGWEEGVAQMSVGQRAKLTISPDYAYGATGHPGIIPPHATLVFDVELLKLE

Sequence of Abl(Y253F)(h) (human) (P00519 27-1130 Y253F limits assumed): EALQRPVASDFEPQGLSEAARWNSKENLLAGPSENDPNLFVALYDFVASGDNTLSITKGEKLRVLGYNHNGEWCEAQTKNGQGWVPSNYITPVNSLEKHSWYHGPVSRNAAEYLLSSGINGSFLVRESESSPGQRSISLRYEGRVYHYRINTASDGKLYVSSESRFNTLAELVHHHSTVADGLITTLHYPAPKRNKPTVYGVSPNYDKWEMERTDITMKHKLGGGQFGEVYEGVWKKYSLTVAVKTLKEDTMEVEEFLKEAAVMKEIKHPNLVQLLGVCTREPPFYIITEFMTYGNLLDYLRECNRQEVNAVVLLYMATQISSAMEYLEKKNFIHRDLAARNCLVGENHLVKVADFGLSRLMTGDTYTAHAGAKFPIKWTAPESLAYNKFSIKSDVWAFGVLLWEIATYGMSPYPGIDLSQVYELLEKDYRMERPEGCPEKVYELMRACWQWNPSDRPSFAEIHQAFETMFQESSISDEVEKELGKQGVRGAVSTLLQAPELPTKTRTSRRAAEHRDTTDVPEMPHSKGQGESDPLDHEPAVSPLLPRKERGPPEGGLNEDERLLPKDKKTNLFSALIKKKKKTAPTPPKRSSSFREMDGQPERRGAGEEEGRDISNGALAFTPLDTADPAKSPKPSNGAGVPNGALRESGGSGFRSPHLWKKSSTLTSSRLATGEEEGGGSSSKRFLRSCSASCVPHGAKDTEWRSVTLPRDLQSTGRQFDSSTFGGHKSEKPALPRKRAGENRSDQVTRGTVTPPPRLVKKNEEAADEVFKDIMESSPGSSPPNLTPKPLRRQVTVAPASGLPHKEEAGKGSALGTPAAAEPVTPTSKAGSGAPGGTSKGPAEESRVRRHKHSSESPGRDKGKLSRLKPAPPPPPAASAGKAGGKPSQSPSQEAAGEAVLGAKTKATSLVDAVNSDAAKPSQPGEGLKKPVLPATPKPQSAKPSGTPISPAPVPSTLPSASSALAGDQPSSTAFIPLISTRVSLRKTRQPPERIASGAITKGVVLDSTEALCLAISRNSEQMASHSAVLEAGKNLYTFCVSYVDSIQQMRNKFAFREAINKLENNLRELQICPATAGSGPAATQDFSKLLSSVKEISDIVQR
Sequence of Abl(Q252H)(h) (human) (P00519 27-1130 Q252H limits assumed): as the sequence (P00519 27-1130 Y253F limits assumed) above, with Q226H, F227Y counted along it
Sequence of IGF-1R(h), activated (human) (P08069 959-1367 limits assumed): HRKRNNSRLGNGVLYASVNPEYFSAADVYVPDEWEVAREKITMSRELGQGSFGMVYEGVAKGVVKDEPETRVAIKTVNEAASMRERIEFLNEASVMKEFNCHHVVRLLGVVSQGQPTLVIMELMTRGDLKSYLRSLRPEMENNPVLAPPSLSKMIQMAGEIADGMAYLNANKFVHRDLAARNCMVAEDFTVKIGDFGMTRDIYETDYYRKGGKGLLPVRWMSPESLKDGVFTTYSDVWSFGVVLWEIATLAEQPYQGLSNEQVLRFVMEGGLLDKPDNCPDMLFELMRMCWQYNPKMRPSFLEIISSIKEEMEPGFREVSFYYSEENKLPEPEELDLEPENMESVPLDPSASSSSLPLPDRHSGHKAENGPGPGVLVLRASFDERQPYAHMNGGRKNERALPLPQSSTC

Take MMI-0300 (peptide): the % activity at 100 µM is 140% in assay [1]; 82% in [2]; 86% in [3]; 91% in [4]; 93% in assay [5]; 80% in [6]. Further, the % activity at 100 µM in [7] worked out at 48%; in [8] it was 48%; in assay [9], 52%; in assay [10], 22%; in assay [11], 145%.

For the substance MMI-0500 (peptide), the % activity at 100 µM in [1] was determined as 81%; in assay [2], 40%; in [3] it was 29%; in [4], 65%; in assay [5] it was 337%; in [6] it was 45%. In addition, the % activity at 100 µM amounted to 5% in assay [7]; 18% in [8]; 17% in assay [9]; 10% in [10]; 140% in assay [11].

On to MMI-0400 (peptide), for which the % activity at 100 µM in assay [1] stood at 130%; in assay [2], 98%; in assay [3], 78%; in assay [4], 87%; in assay [5], 146%; in assay [6] it was 77%. Also, the % activity at 100 µM in assay [7] stood at 52%; in assay [8], 44%; in assay [9], 50%; in [10] it was 14%; in assay [11], 125%.
